According to patent CN111234017A (NANJING YOUMAI BIOTECHNOLOGY CO LTD, dated 2020):
Values belong to the binder of their own block, whether it stands above or below them.

Tests used:
[1] = molecular target: T1, human PD-L1 expressed on cells (CT26 transfected with human PD-L1, HCC827, Raji-PD-L1, CHO-PDL1-OKT3) (human, UniProt Q9NZQ7 19-290); test: cell-based or functional assay
[2] = molecular target: T1, human PD-L1 expressed on cells (CT26 …); test: flow cytometry on CT26 cells transfected with human PD-L1
[3] = molecular target: T1, human PD-L1 expressed on cells (CT26 …); test: flow cytometry on HCC827 cells naturally overexpressing PD-L1
[4] = molecular target: T2, 人PD-L1蛋白 (human PD-L1 protein) (human, UniProt Q9NZQ7 19-238, limits assumed); test: ELISA, human PD-L1 protein coated at 1 μg/mL, HRP secondary antibody, OD450
T2 construct: also called CD274; B7-H1

[5] = molecular target: T1, human PD-L1 expressed on cells (CT26 …); test: flow cytometry competition: inhibition of human PD-1-Fc binding to Raji-PD-L1 cells
[6] = molecular target: T2, 人PD-L1蛋白 (human PD-L1 protein); test: SPR, Biacore 8K, antibody captured on protein A sensor chip, PD-L1 protein as analyte
[7] = molecular target: 食蟹猴PD-L1蛋白 (cynomolgus monkey PD-L1 protein) (cynomolgus monkey); test: ELISA on coated cynomolgus PD-L1 protein

T1 sequence (Q9NZQ7 19-290): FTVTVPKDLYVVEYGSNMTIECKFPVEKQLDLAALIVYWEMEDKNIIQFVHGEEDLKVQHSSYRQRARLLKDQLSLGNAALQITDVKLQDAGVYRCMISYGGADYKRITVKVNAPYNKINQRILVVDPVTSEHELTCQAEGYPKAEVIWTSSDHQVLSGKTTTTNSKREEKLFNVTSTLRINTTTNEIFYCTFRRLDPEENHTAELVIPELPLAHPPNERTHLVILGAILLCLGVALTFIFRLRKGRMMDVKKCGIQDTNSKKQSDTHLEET
T2 sequence (Q9NZQ7 19-238 limits assumed): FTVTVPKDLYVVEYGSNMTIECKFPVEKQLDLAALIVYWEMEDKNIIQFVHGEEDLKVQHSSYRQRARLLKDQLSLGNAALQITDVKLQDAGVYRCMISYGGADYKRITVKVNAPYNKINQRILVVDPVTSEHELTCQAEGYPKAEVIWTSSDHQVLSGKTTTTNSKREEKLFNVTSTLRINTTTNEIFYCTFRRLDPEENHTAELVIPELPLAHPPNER

Jurkat-PD-1/NFAT-luciferase报告基因活性 (luciferase bioluminescence), EC50 [1]: 0.0838 µg/mL
EC50 [2]: 0.378 µg/mL
EC50 [3]: 0.0864 µg/mL
EC50 [4]: 0.0651 µg/mL
IC50 [5]: 0.298 µg/mL
Kd [6]: 400 pM
B1: 人源化抗体MT02-C4 (humanized anti-human PD-L1 antibody MT02-C4) (antibody, human IgG1, kappa, V domains shown)
VH: QVQLQESGPGLVKPSETLSLTCTVSGDSITSGYWSWIRQPPGKGLEYMGYISYTGSTYYSPSLIRRMTISRDTSKNQFSLKLSSVTAADTAVYYCAKYENWKEGYFDIWGQGTLVTVSS
VL: DIQMTQSPSSLSASVGDRVTITCKASQNVGINVAWYQQKPGKAPKALIYSATQRYSGVPSKFSGSGSGTDFTLTISSLQPEDFATYFCQQYYGYPLTFGQGTRLEIKR
notes: Humanized (CDR grafting with back mutations), human IgG1 / kappa

EC50 [7]: 0.0422 µg/mL
EC50 [2]: 0.209 µg/mL
EC50 [3]: 0.0445 µg/mL
EC50 [4]: 0.216 µg/mL
IC50 [5]: 0.481 µg/mL
B2: 人-鼠嵌合抗体MT02-L4 (human-mouse chimeric anti-human PD-L1 antibody MT02-L4) (antibody, human IgG1, kappa, V domains shown)
VH: EVQLQESGPSLVKPSQTLSLTCSVTGDSITSGYWSWIRKFPGNNLDYMGYISYTGSTYYSPSLIRRMSINRDTSKNQFYLQLNSVTTEDTATYYCAKYENWKEGYFDIWGAGTTVTVSS
VL: DIVMTRSQKFMSTSVGDRVSVTCKASQNVGINVAWYQQKAGQSPKALIHSATQRYSGVPDRFTGGGSGTDFTLTIDDVQSADLAEYFCQQYYGYPLTFGAGTRLELKR
notes: Mouse 13B8 variable regions joined to the human IgG1 heavy constant region and the kappa constant region
